{"source": "paper PMC8646660", "about": "(EMBO Molecular Medicine, 2021)", "binders": {"B1": {"name": "scFD20 (single-chain variable fragment of FD20) (scFv, V domains shown)", "VH": "QVQLQQSGAEVKKPGSSVKVSCKASGGTFSSYAFSWVRQAPGQGLEWMGRIIPILGIANYAQKFQGRVTITADISTSTAYMALSSLRSEDTAVYYCAKVEVNIGMDDYYYYYGMDVWGQGTTVTVSS", "VL": "not shown", "notes": "also called scFv of FD20; scFv FD20; source: E. coli MC1061, periplasmic release, purified (Ni-NTA)"}, "B2": {"name": "FD20 (IgG format) (antibody, V domains shown)", "VH": "B1 VH", "VL": "not shown"}}, "key": {"[1]": {"molecular_target": "T1, SARS-CoV-2 S receptor-binding domain (RBD), biotinylated (SARS-CoV-2, UniProt P0DTC2, biotin on the Avi tag (enzymatic, BirA))", "experiment": "cell-based or functional assay"}, "[2]": {"molecular_target": "T1, SARS-CoV-2 S receptor-binding domain …", "experiment": "BLI", "settings": "both partners purified"}}}
{"binder": "B1", "values": [{"measurement": "neutralisation of SARS-CoV-2 pseudovirus particles (pp), IC50", "setting": "[1]", "value": 117, "unit": "nM"}, {"measurement": "Kd", "setting": "[2]", "value": 5.6, "unit": "nM"}]}
{"binder": "B2", "values": [{"measurement": "microneutralisation of authentic SARS-CoV-2 hCoV-19/China/CAS-B001/2020, IC50", "setting": "[1]", "value": 5.2, "unit": "nM"}]}
